Consider eight substances from publication PMC7524730.

One series deals with PRMT5 (UniProt O14744). Kind of series: co-IP and immunoblot. The following applies: reference: LSH wild type; sites S503. Background: Immunoblotting shows a protein as a band on a membrane.

Read-outs that look alike come from different tables or passages of the source.

Consider “LSH (lymphoid-specific helicase; HELLS, PASG, SMARCA6): R541A”, for which the other result (methylation at R541) was “no change”.

For the substance “LSH (lymphoid-specific helicase; HELLS, PASG, SMARCA6): R507A”, the other entry (methylation at R507) is “no change”.

For the substance “LSH (lymphoid-specific helicase; HELLS, PASG, SMARCA6): R309A”, under “methylation at R309”, the localisation_or_trafficking result is “no change” and the other result is on record as “increases”.

Turning to “LSH (lymphoid-specific helicase; HELLS, PASG, SMARCA6): S503D phosphomimic”, the other entry (phosphorylation at S503) is given as “decreases”.

In the case of “LSH (lymphoid-specific helicase; HELLS, PASG, SMARCA6): Lambda Protein Phosphatase (λPP)”, the other entry (phosphorylation at S503) is given as “increases”.

On to “LSH (lymphoid-specific helicase; HELLS, PASG, SMARCA6): S503A”, for which, where the note is “phosphorylation at S503”, the localisation_or_trafficking result is “no change” and the other result is on record as “increases”.

For the substance “LSH (lymphoid-specific helicase; HELLS) (from UniProt Q9NRZ9) LSH S503A”, in the series with PRMT5, the “binding against the reference” value is on record as “stronger”.

As to “LSH (lymphoid-specific helicase; HELLS, PASG, SMARCA6): MAPK1 shRNA knockdown; LY3214996 (MAPK1/2 inhibitor)”, for the setting “phosphorylation at S503”, the other result was “increases”.
